We go through ten molecules from US11471462B2, “Compositions and methods for detecting and treating diabetes” (THE BROAD INSTITUTE, INC., priority 2016, dated 2022).

First the molecules themselves.
B1: HSD17B12 (protein)
chain: MESALPAAGFLYWVGAGTVAYLALRISYSLFTALRVWGVGNEAGVGPGLGEWAVVTGSTDGIGKSYAEELAKHGMKVVLISRSKDKLDQVSSEIKEKFKVETRTIAVDFASEDIYDKIKTGLAGLEIGILVNNVGMSYEYPEYFLDVPDLDNVIKKMININILSVCKMTQLVLPGMVERSKGAILNISSGSGMLPVPLLTIYSATKTFVDFFSQCLHEEYRSKGVFVQSVLPYFVATKLAKIRKPTLDKPSPETFVKSAIKTVGLQSRTNGYLIHALMGSIISNLPSWIYLKIVMNMNKSTRAHYLKKTKKN
B2: SACM1L (protein)
chain: MATAAYEQLKLHITPEKFYVEACDDGADDVLTIDRVSTEVTLAVKKDVPPSAVTRPIFGILGTIHLVAGNYLIVITKKIKVGEFFSHVVWKATDFDVLSYKKTMLHLTDIQLQDNKTFLAMLNHVLNVDGFYFSTTYDLTHTLQRLSNTSPEFQEMSLLERADQRFVWNGHLLRELSAQPEVHRFALPVLHGFITMHSCSINGKYFDWILISRRSCFRAGVRYYVRGIDSEGHAANFVETEQIVHYNGSKASFVQTRGSIPVFWSQRPNLKYKPLPQISKVANHMDGFQRHFDSQVIIYGKQVIINLINQKGSEKPLEQTFATMVSSLGSGMMRYIAFDFHKECKNMRWDRLSILLDQVAEMQDELSYFLVDSAGQVVANQEGVFRSNCMDCLDRTNVIQSLLARRSLQAQLQRLGVLHVGQKLEEQDEFEKIYKNAWADNANACAKQYAGTGALKTDFTRTGKRTHLGLIMDGWNSMIRYYKNNFSDGFRQDSIDLFLGNYSVDELESHSPLSVPRDWKFLALPIIMVVAFSMCIICLLMAGDTWTETLAYVLFWGVASIGTFFIILYNGKDFVDAPRLVQKEKID
B3: UBAC2 (protein)
chain: HCQKLFVYDLHAVKNDFQIWRLICGRIICLDLKDTFCSSLLIYNFRIFERRYGSRKFASFLLGSWVLSALFDFLLIEAMQYFFGITAASNLPSGFLAPVFALFVPFYCSIPRVQVAQILGPLSITNKTLIYILGLQLFTSGSYIWIVAISGLMSGLCYDSKMFQVHQVLCIPSWMAKFFSWTLEPIFSSSEPTSEARIGMGATLDIQRQQRMELLDRQLMFSQFAQGRRQRQQQGGMINWNRLFPPLRQRQNVNYQGGRQSEPAAPPLEVSEEQVARLMEMGFSRGDALEALRASNNDLNVATNFLLQH
B4: PPP6R3 (protein)
chain: MFWKFDLHSSSHIDTLLEREDVTLKELMDEEDVLQECKAQNRKLIEFLLKAECLEDLVSFIIEEPPQDMDEKIRYKYPNISCELLTSDVSQMNDRLGEDESLLMKLYSFLLNDSPLNPLLASFFSKVLSILISRKPEQIVDFLKKKHDFVDLIIKHIGTSAIMDLLLRLLTCIEPPQPRQDVLNWLNEEKIIQRLVEIVHPSQEEDRHSNASQSLCEIVRLSRDQMLQIQNSTEPDPLLATLEKQEIIEQLLSNIFHKEKNESAIVSAIQILLTLLETRRPTFEGHIEICPPGMSHSACSVNKSVLEAIRGRLGSFHELLLEPPKKSVMKTTWGVLDPPVGNTRLNVIRLISSLLQTNTSSINGDLMELNSIGVILNMFFKYTWNNFLHTQVEICIALILASPFENTENATITDQDSTGDNLLLKHLFQKCQLIERILEAWEMNEKKQAEGGRRHGYMGHLTRIANCIVHSTDKGPNSALVQQLIKDLPDEVRERWETFCTSSLGETNKRNTVDLVTTCHIHSSSDDEIDFKETGFSQDSSLQQAFSDYQMQQMTSNFIDQFGFNDEKFADQDDIGNVSFDRVSDINFTLNTNESGNIALFEACCKERIQQFDDGGSDEEDIWEEKHIAFTPESQRRSSSGSTDSEESTDSEEEDGAKQDLFEPSSANTEDKMEVDLSEPPNWSANFDVPMETTHGAPLDSVGSDVWSTEEPMPTKETGWASFSEFTSSLSTKDSLRSNSPVEMETSTEPMDPLTPSAAALAVQPEAAGSVAMEASSDGEEDAESTDKVTETVMNGGMKETLSLTVDAKTETAVFKRVLKSYREEGKLSTSQDAACKDAEECPETAEAKCAAPRPPSSSPEQRTGQPSAPGDTSVNGPV
B5: FAF2 (protein)
chain: AAPEERDLTQEQTEKLLQFQDLTGIESMDQCRHTLEQHNWNIEAAVQDRLNEQEGVPSVFNPPPSRPLQVNTADHRIYSYVVSRPQPRGLLGWGYYLIMLPFRFTYYTILDIFRFALRFIRPDPRSRVTDPVGDIVSFMHSFEEKYGRAHPVFYQGTYSQALNDAKRELRFLLVYLHGDDHQDSDEFCRNTLCAPEVISLINTRMLFWACSTNKPEGYRVSQALRENTYPFLAMIMLKDRRMTVVGRLEGLIQPDDLINQLTFIMDANQTYLVSERLEREERNQTQVLRQQQDEAYLASLRADQEKERKKREERERKRRKEEEVQQQKLAEERRRQNLQEEKERKLECLPPEPSPDDPESVKIIFKLPNDSRVERRFHFSQSLTVIHDFLFSLKESPEKFQIEANFPRRVLPCIPSEEWPNPPTLQEAGLSHTEVLFVQDLTDE
B6: TMEM33 (protein)
chain: ADTTPNGPQGAGAVQFMMTNKLDTAMWLSRLFTVYCSALFVLPLLGLHEAASFYQRALLANALTSALRLHQRLPHFQLSRAFLAQALLEDSCHYLLYSLIFVNSYPVTMSIFPVLLFSLLHAATYTKKVLDARGSNSLPLLRSVLDKLSANQQNILKFIACNEIFLMPATVFMLFSGQGSLLQPFIYYRFLTLRYSSRRNPYCRTLFNELRIVVEHIIMKPACPLFVRRLCLQSIAFISRLAPTVP
B7: SURF4 (protein)
chain: GQNDLMGTAEDFADQFLRVTKQYLPHVARLCLISTFLEDGIRMWFQWSEQRDYIDTTWNCGYLLASSFVFLNLLGQLTGCVLVLSRNFVQYACFGLFGIIALQTIAYSILWDLKFLMRNLALGGGLLLLLAESRSEGKSMFAGVPTMRESSPKQYMQLGGRVLLVLMFMTLLHFDASFFSIVQNIVGTALMILVAIGFKTKLAALTLVVWLFAINVYFNAFWTIPVYKPMHDFLKYDFFQTMSVIGGLLLVVALGPGGVSMDEKKKEW
B8: SLC25A22 (protein)
chain: MADKQISLPAKLINGGIAGLIGVTCVFPIDLAKTRLQNQQNGQRVYTSMSDCLIKTVRSEGYFGMYRGAAVNLTLVTPEKAIKLAANDFFRHQLSKDGQKLTLLKEMLAGCGAGTCQVIVTTPMEMLKIQLQDAGRIAAQRKILAAQGQLSAQGGAQPSVEAPAAPRPTATQLTRDLLRSRGIAGLYKGLGATLLRDVPFSVVYFPLFANLNQLGRPASEEKSPFYVSFLAGCVAGSAAAVAVNPCDVVKTRLQSLQRGVNEDTYSGILDCARKILRHEGPSAFLKGAYCRALVIAPLFGIAQVVYFLGIAESLLGLLQDPQA
B9: TIMM23B (protein)
chain: MEGGGGSGDKTTGVLAGFFGAGEAGYSHADLAGVPLTGMNPLCPYLNVDPRYLVQDTDEFILPTGANKTWGRFELAFFTIGGCCMTGAAFGAMNGLRLGLKETQNMAWSKPGNVQILNMVTRQGALWANTLGSLALLYSAFGVIIEKTRGAEDDLNTVAAGTMTGMLYKCTVSEMALDSPFCVLLSGS
B10: BAG2 (protein)
chain: AQAKINAKANEGRFCRSSSMADRSSRLLESLDQLELRVEALREAATAVEQEKEILLEMIHSIQNSQDMRQISDGEREELNLTANRLMGRTLTVEVSVETIRNPQQQESLKHATRIIDEVVNKFLDDLGNAKSHLMSLYSACSSEVPHGPVDQKFQSIVIGCALEDQKKIKRRLETLLRNIENSDKAIKLLEHSKGAGSKTLQQNAESRFN

This assay deals with SLC16A11. Put plainly: SLC16A11 protein-protein interaction study (immunoprecipitation, quantitative mass spectrometry). Details: species or system human. As to conditions: putative SLC16A11^REF interaction partners; immunoprecipitation from HEK293T cells vs empty vector control; Blandt-Altman. The text has this: Alternatively, these variants may result in reduced transport because they disrupt protein-protein interactions responsible for correct SLC16A11 function. To explore this possibility, SLC16A11 was immunoprecipitated from HEK293T cells expressing either REF or T2D risk SLC16A11-V5 or empty vector control and quantitative mass spectrometry was used to define the SLC16A11 interactome.
Another mechanism through which the variants could affect activity is through disruption of protein-protein interactions. To explore this possibility, quantitative mass spectrometry-based protein-protein interaction studies were performed to define the SLC16A11 interactome and evaluate if the T2D risk coding variants alter any interactions.
Beads were then washed once with lysis buffer and three times with wash buffer. After the last wash, residual wash buffer was removed, 10 μL fresh wash buffer was added, and beads were stored at −80° C. until analysis by the Proteomics Platform at the Broad Institute, as detailed in the “Proteomics Methods for SLC16A11 Protein Interaction Studies” below.
The beads from immunopurification were washed once with IP lysis buffer, then three times with PBS, the three different lysates of each replicate were resuspended in 90 uL digestion buffer (2M Urea, 50 mM Tris HCl), 2 ug of sequencing grade trypsin added, 1 hour shaking at 700 rpm. The supernatant was removed and placed in a fresh tube. The beads were then washed twice with 50 uL digestion buffer and combined with the supernatant. The combined supernatants were reduced (2 uL 500 mM DTT, 30 minutes, RT), alkylated (4 uL 500 mM IAA, 45 minutes, dark) and a longer overnight digestion performed: 2 ug (4 uL) trypsin, shake o/n, The samples were then quenched with 20 uL 10% FA and desalted on 10 mg SepPak columns.
Desalted peptides were labelled with iTRAQ reagents according to the manufacturer's instructions (AB Sciex, Foster City, Calif.). Peptides were dissolved in 30 μl of 0.5 M TEAB pH 8.5 solution and labeling reagent was added in 70 ul of ethanol. After 1 h incubation the reaction was stopped with 50 mM Tris/HCl pH 7.5. Differentially labelled peptides were mixed and subsequently desalted on 10 mg SepPak columns.
Reconstituted peptides were separated on an online nanoflow EASY-nLC 1000 UHPLC system (Thermo Fisher Scientific) and analyzed on a benchtop Orbitrap Q Exactive Plus mass spectrometer (Thermo Fisher Scientific). The peptide samples were injected onto a capillary column (Picofrit with 10 μm tip opening/75 μm diameter, New Objective, PF360-75-10-N-5) packed in-house with 20 cm C18 silica material (1.9 μm ReproSil-Pur C18-AQ medium, Dr. Maisch GmbH, r119.aq). The UHPLC setup was connected with a custom-fit microadapting tee (360 μm, IDEX Health & Science, UH-753), and capillary columns were heated to 50° C. in column heater sleeves (Phoenix-ST) to reduce backpressure during UHPLC separation. Injected peptides were separated at a flow rate of 200 nL/min with a linear 80 min gradient from 100% solvent A (3% acetonitrile, 0.1% formic acid) to 30% solvent B (90% acetonitrile, 0.1% formic acid), followed by a linear 6 min gradient from 30% solvent B to 90% solvent B. Each sample was run for 120 min, including sample loading and column equilibration times. The Q Exactive instrument was operated in the data-dependent mode acquiring HCD MS/MS scans (R=17,500) after each MS1 scan (R=70,000) on the 12 top most abundant ions using an MS1 ion target of 3×10^6 ions and an MS2 target of 5×10^4 ions. The maximum ion time utilized for the MS/MS scans was 120 ms; the HCD-normalized collision energy was set to 27; the dynamic exclusion time was set to 20 s, and the peptide match and isotope exclusion functions were enabled.
All mass spectra were processed using the Spectrum Mill software package v6.0 pre-release (Agilent Technologies) which includes modules developed by us for iTRAQ-based quantification. […]
B1: the “BA log fold change” value amounted to 1.26. As for B2, the “BA log fold change” value came to 1.26.

B3: the “BA log fold change” value is reported as 1.21.

Take B4: the “BA log fold change” value is 1.18. As for B5, the “BA log fold change” value worked out at 1.23. For B6, the “BA log fold change” value is recorded as 1.25. As for B7, the figure is 1.33; as for B8, 1.20; as for B9, 1.22. Take B10: the “BA log fold change” value stood at 1.26.
